Patent publication US20230192896A1 (BIOVERATIV THERAPEUTICS, published 2023)

Key:
[1] = target: T1, FIXa-SM (FIXa+EGR-CMK) (human, UniProt P00740 47-191; P00740 227-461, EGR-CMK (L-Glu-Gly-Arg chloromethyl ketone) covalently bound to the active site); experiment: BLI; class meaning: paragraph 914
T1 construct: BLI antigen bought from Haematologic Technologies (HCIXA-EGR); also called FIXa with substrate mimic

[2] = target: T2, free FIXa (activated Factor IX) (human, UniProt P00740 47-191; P00740 227-461); experiment: BLI; class meaning: paragraph 914
T2 construct: BLI antigen bought from Haematologic Technologies (HCIXA-0050); also called factor IXa

| Binder | binding result [1] | binding result [2] |
| --- | --- | --- |
| BIIB-9-470 (antibody, V domains shown, IgG) VH: EVQLVESGGGLVQPGGSLRLSCAASGFTFSSYWMSWVRQAPGKGLEWVANIKQDGSEKYYVDSVKGRFTISRDNAKNSLYLQMNSLRAEDTAVYYCARDAGIAWALDYWGQGTLVTVS VL: DIQMTQSPSTLSASVGDRVTITCRASQSISSWLAWYQQKPGKAPKLLIYKASSLESGVPSRFSGSGSGTEFTLTISSLQPDDFATYYCQHPHSWTFGGGTKVEIK | binds | binds |
| BIIB-9-889 (antibody, V domains shown, IgG) VH: QLQLQESGPGLVKPSETLSLTCTVSGGSISSSSYYWGWIRQPPGKGLEWIGSIYYSGSTYYNPSLKSRVTISVDTSKNQFSLKLSSVTAADTAVYYCARDVGWYTEYFDLWGRGTLVTVSS VL: EIVMTQSPATLSVSPGERATLSCRASQSVSSNLAWYQQKPGQAPRLLIYGASTRATGIPARFSGSGSGTEFTLTISSLQSEDFAVYYCQQAFNWPPTFGGGTKVEIK | binds | binds |
| BIIB-9-433 (antibody, V domains shown, IgG) VH: QLQLQESGPGLVKPSETLSLTCTVSGGSISSSRYYWGWIRQPPGKGLEWIGSIYYSGSTYYNPSLKSRVTISVDTSKNQFSLKLSSVTAADTAVYYCARDAGYSAELFDYWGQGTLVTVSS VL: EIVLTQSPATLSLSPGERATLSCRASQSVSSYLAWYQQKPGQAPRLLIYDASNRATGIPARFSGSGSGTDFTLTISSLEPEDFAVYYCQQSSAYPPTFGGGTKVEIK | binds | binds |
| BIIB-9-445 (antibody, V domains shown, IgG) VH: QVQLVQSGAEVKKPGASVKVSCKASGYTFTSYYIHWVRQAPGQGLEWMGIINPSGGSTSYAQKFQGRVTMTRDTSTSTVYMELSSLRSEDTAVYYCARDVGQDYWFDLWGRGTLVTVSS VL: EIVMTQSPATLSVSPGERATLSCRASQSVSSNLAWYQQKPGQAPRLLIYSASTRATGIPARFSGSGSGTEFTLTISSLQSEDFAVYYCQQYDNFPFTFGGGTKVEIK | binds | binds |
| BIIB-9-1264 (antibody, V domains shown, IgG) VH: QVQLVQSGAEVKKPGASVKVSCKASGYTFTSYYMHWVRQAPGQGLEWMGIINPSGGSTSYAQKFQGRVTMTRDTSTSTVYMELSSLRSEDTAVYYCARDGDSSVYAFDYWGQGTLVTVSS VL: DIQMTQSPSSLSASVGDRVTITCQASQDITNYLNWYQQKPGKAPKLLIYDASNLETGVPSRFSGSGSGTDFTFTISSLQPEDIATYYCQQVDDYPFTFGGGTKVEIK | binds | binds |
| BIIB-9-887 (antibody, V domains shown, IgG) VH: QVQLVQSGAEVKKPGASVKVSCKASGYTFTSYYMVWVRQAPGQGLEWMGIINPSGGSTSYAQKFQGRVTMTRDTSTSTVYMELSSLRSEDTAVYYCARDAEAHWIPGMDVWGQGTTVTVSS VL: DIQMTQSPSSVSASVGDRVTITCRASQGISSWLAWYQQKPGKAPKLLIYAASSLQSGVPSRFSGSGSGTDFTLTISSLQPEDFATYYCQQASSFPFTFGGGTKVEIK | binds | binds |
| BIIB-9-625 (antibody, V domains shown, IgG) VH: QLQLQESGPGLVKPSETLSLTCTVSGGSISSSSYAWGWIRQPPGKGLEWIGSIYYSGSTYYNPSLKSRVTISVDTSKNQFSLKLSSVTAADTAVYYCARDRGWYTEVLDIWGQGTMVTVSS VL: DIQMTQSPSSLSASVGDRVTITCRASQSISSYLNWYQQKPGKAPKLLIYAASSLQSGVPSRFSGSGSGTDFTLTISSLQPEDFATYYCQQSDTDPPTFGGGTKVEIK | binds | binds |
| BIIB-9-1276 (antibody, V domains shown, IgG) VH: QLQLQESGPGLVKPSETLSLTCTVSGGSISSSSYYWGWIRQPPGKGLEWIGSIYYSGSTYYNPSLKSRVTISVDTSKNQFSLKLSSVTAADTAVYYCARDVGRTYELFDIWGQGTMVTVSS VL: DIQMTQSPSSVSASVGDRVTITCRASQGISSWLAWYQQKPGKAPKLLIYAASSLQSGVPSRFSGSGSGTDFTLTISSLQPEDFATYYCQQGNSFPITFGGGTKVEIK | binds | binds |
